Target: GluD1△851 (rat GluD1 receptor truncated C-terminally at residue 851) (rat)
Experiment: cryo-EM structure

stoichiometry N: 4
Substance: GluD1△851 (rat GluD1 receptor truncated C-terminally at residue 851)

Reference: paper PMC7025878
